These results are taken from patent US9404098, “Method for cleaving a target RNA using a Cas6 polypeptide” (University of Georgia Research Foundation, Inc.).

For data set [1], the target named is T1, PfCas6 (PF1131) (Pyrococcus furiosus, UniProt Q8U1S4 SEQ:1-264).
T1 sequence: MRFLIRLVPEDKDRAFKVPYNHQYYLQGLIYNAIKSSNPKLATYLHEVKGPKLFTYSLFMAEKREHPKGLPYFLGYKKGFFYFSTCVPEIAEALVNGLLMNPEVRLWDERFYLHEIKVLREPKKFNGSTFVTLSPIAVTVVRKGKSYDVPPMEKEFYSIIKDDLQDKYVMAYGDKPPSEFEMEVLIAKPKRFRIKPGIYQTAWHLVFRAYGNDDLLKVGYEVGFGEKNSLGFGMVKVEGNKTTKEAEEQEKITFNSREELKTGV
In words: EMSA; gel-purified; up to 500 nM. The settings on record: tags: N-terminal 6xHis; label: 32P uniform. On the procedure:
(§1) Typically, identical reaction conditions were used to assay the ability of PfCas6 protein to bind to and to cleave substrate RNAs. These reactions were initiated by incubating 0.05 μmol of ^32P-radiolabeled RNAs (either uniformly or 5'-end-labeled) with up to 1 (as indicated in the figure legends) of PfCas6 protein in 20 mM HEPES-KOH (pH 7.0), 250 mM KCl, 0.75 mM DTT, 1.5 mM MgCl_2, 5 μg of E. coli tRNA, and 10% glycerol in a 20-μL reaction volume for 30 minutes at 70° C. Half of the reactions were directly run on native 8% polyacrylamide gels to assay RNA binding by gel mobility shift essentially as described (Baker et al., 2005. Genes & Dev. 19: 1238-1248). […] Gels were dried and the radiolabeled RNAs visualized by phosphorimaging.
(§2) Figure 4: FIG. 4. CRISPR repeat sequence requirements for PfCas6 binding. (A) Detailed analysis of binding with a series of CRISPR-derived RNAs and mutants. The left panel illustrates the RNAs tested, with repeat (R) and invader targeting (ψ) sequences, and PfCas6 cleavage site (dashed lines) indicated. The shaded portion of j denotes an insertion, dashed block denotes an internal deletion, and The shaded portions of **, e, f, and k denote substitutions (with complementary sequence). DNA indicates a DNA repeat sequence substrate. PfCas6 binding is summarized relative to binding to the 5' cleavage product (++++). […]

The target in data set [2] is T1, PfCas6 (PF1131). The data set is described as follows: EMSA; affinity similar to 5' cleavage product. Conditions: tags: N-terminal 6xHis; label: 32P. The procedure:
as §1, §2
A general note: A gel shift assay detects complexes by their altered migration in electrophoresis.

The target in data set [3] is T1, PfCas6 (PF1131). The data set is described as follows: footprint; nt 2-8 protected from Pb(II); nt 3, 5 and 8 from RNase A; no 3' region protection; 500 mM KCl. Conditions: tags: N-terminal 6xHis; label: 32P (5', 3' or uniform); potential weak hairpin, mostly unstructured in solution. An excerpt: Size markers include 5' end-labeled RNA markers (M) and alkaline hydrolysis ladders (OH). Bars along right side of each gel indicate strong protections. (B) 5' end-labeled CRISPR repeat RNA was used for lead-induced and RNase A cleavage as was done in (A). […] (C) A summary of cleavage protection is shown. The Cas6 cleavage site is indicated by an asterisk (*), and the nucleotides protected from cleavage are shown by the bars above and below the sequence FIG. 10. Lead-induced and RNase A cleavage footprinting with CRISPR repeat RNA and PfCas6. (A) 3' end labeled CRISPR repeat RNA was incubated in the absence (RNA) or presence of increasing concentrations of PfCas6 (indicated in μM) and then subjected to RNase A cleavage (left panel) or lead-induced cleavage (right panel). […] Size markers include 5' end-labeled RNA markers (M) and alkaline hydrolysis ladders (OH). Bars along right side of each gel indicate strong protections. (B) 5' end-labeled CRISPR repeat RNA was used for lead-induced and RNase A cleavage as was done in (A). […] (C) A summary of cleavage protection is shown. The Cas6 cleavage site is indicated by an asterisk (*), and the nucleotides protected from cleavage are shown by the bars above and below the sequence (SEQ ID NO: 238). Figure 10:
Specifically, nucleotides 2-8 were protected from lead induced cleavage in a Cas6 concentration dependent manner. […]

The target in data set [4] is T2, PfCas6 Y31F (Pyrococcus furiosus, UniProt Q8U1S4 SEQ:1-264, Y31F).
T2 sequence: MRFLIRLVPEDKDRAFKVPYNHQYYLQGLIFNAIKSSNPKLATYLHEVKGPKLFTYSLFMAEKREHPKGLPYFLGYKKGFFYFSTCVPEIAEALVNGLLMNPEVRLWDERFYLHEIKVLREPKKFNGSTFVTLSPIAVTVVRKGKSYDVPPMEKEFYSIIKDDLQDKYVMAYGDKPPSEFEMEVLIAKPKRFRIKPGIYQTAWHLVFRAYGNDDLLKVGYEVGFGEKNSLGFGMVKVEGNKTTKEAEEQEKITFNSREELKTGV
In words: cleavage_in_vitro; 500 nM. The settings on record: tags: N-terminal 6xHis; label: 32P (5', 3' or uniform); potential weak hairpin, mostly unstructured in solution. On the procedure:
(§3) RNA-binding and cleavage reactions. RNA binding and cleavage reactions were carried out as described in example 1. Briefly, 0.05 μmol of uniformly ^32P-labeled RNA was incubated in the absence (free RNA) or presence of increasing concentrations of Cas6 (as indicated in figure legends) in buffer A for 30 minutes at 65-70° C. Half of each reaction was run on 8% native polyacrylamide gels to assess RNA binding by gel mobility shift analysis. RNA cleavage was assessed by separation of the RNAs on denaturing, 7 M urea containing, 15% polyacrylamide gels following PCI extraction and ethanol precipitation. For analysis of native Cas6 cleavage activity, either ~40 μg of whole cell extract (WCE) or supernatant from an immunoprecipitation reaction (see below) was incubated with 0.05 μmol of uniformly ^32P labeled RNA for 30 minutes at 70° C. Alternatively, 10 μL of resin from an immunoprecipitation reaction (see below) was added. In this case, samples were mixed every five minutes by pipetting up and down during the 30 minute incubation at 70° C. The gels were dried and RNAs visualized by phosphor imaging. Quantitation of cleavage was performed using ImageQuant™ TL software (GE Life Sciences).
(§4) Figure 11: FIG. 11. Cleavage activity of Cas6 mutants. […] The 5' and 3' cleavage products are indicated. (B) Purified wild type (wt) and mutant Cas6 proteins (as indicated above) were separated by SDS-PAGE. Molecular weight markers are indicated in kDa.
(§5) Mutation of any of the three triad amino acids led to a significant decrease or complete loss of cleavage activity relative to wild type Cas6 (FIG. 11A).

Data set [5] addresses T3, PfCas6 K52A (Pyrococcus furiosus, UniProt Q8U1S4 SEQ:1-264, K52A).
T3 sequence: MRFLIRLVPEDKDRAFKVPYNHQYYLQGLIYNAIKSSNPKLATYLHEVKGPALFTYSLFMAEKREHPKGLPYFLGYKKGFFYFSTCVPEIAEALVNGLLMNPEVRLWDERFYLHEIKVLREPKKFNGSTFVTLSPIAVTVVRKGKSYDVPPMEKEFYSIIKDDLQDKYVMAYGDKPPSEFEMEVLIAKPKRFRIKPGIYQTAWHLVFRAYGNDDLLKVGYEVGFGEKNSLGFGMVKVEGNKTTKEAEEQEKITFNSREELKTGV
The data set is described as follows: cleavage_in_vitro; 500 nM. The settings on record: tags: N-terminal 6xHis; label: 32P (5', 3' or uniform); potential weak hairpin, mostly unstructured in solution. The procedure: as §3, §4, §5

The target of data set [6] is T4, PfCas6 K52E (Pyrococcus furiosus, UniProt Q8U1S4 SEQ:1-264, K52E).
T4 sequence: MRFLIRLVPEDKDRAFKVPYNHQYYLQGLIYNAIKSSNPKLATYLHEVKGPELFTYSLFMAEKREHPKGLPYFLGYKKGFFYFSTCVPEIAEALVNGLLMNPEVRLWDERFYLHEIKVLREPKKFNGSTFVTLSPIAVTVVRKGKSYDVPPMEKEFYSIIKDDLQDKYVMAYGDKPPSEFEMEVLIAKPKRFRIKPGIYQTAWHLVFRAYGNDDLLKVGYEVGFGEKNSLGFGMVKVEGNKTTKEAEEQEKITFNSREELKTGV
The data set is described as follows: cleavage_in_vitro; 500 nM. The settings on record: tags: N-terminal 6xHis; label: 32P (5', 3' or uniform); potential weak hairpin, mostly unstructured in solution. On the procedure: as §3, §4, §5

The target in data set [7] is T1, PfCas6 (PF1131). The data set is described as follows: EMSA; binding abolished; up to 500 nM. The settings on record: tags: N-terminal 6xHis; label: 32P uniform. The procedure: as §1, §2
Data set [8] deals with T1, PfCas6 (PF1131). In words: EMSA; up to 500 nM. The settings on record: tags: N-terminal 6xHis; label: 5' 32P. The procedure: as §1, §2
Data set [9] concerns the target T1, PfCas6 (PF1131). The data set is described as follows: EMSA; 70 C. The settings on record: tags: N-terminal 6xHis. On the procedure: as §1
Figure 4: FIG. 4. CRISPR repeat sequence requirements for PfCas6 binding. (A) Detailed analysis of binding with a series of CRISPR-derived RNAs and mutants. The left panel illustrates the RNAs tested, with repeat (R) and invader targeting (ψ) sequences, and PfCas6 cleavage site (dashed lines) indicated. The shaded portion of j denotes an insertion, dashed block denotes an internal deletion, and The shaded portions of **, e, f, and k denote substitutions (with complementary sequence). DNA indicates a DNA repeat sequence substrate. PfCas6 binding is summarized relative to binding to the 5' cleavage product (++++). Corresponding RNA diagrams and data panels are designated with lowercase letters. The right panels show gel mobility shift analysis of the indicated RNAs with increasing concentrations (0, 1, 50, 200, and 500 nM) of PfCas6. Substrates are uniformly radiolabeled except for those shown in panels a, b, c, and 1, which are 5'-end-labeled. (B) PfCas6 interacts with the gel-purified 5' cleavage product.

For data set [10], the target named is T1, PfCas6 (PF1131). In words: EMSA; 0-500 nM Cas6, 70 C, 250 mM KCl, 1.5 mM MgCl2. Conditions: tags: N-terminal 6xHis; label: 32P uniform. The procedure:
Figure 3: FIG. 3. Identification of the site of PfCas6 cleavage within the CRISPR repeat RNA. (A) The site of PfCas6 cleavage within the CRISPR repeat RNA was mapped by incubating 5' end labeled repeat RNA with PfCas6 nuclease and comparing the size of the 5' RNA cleavage product (arrow) with RNAse T1 (T1) and alkaline hydrolysis (OH) sequence ladders. (B) Potential secondary structure of P. furiosus repeat RNA (SEQ ID No: 238) with cleavage site indicated. (C) Analysis of cleavage of wild-type and cleavage site mutant (AA to GG) repeat RNAs with increasing concentrations (0, 1, 50, 200, and 500 nM) of PfCas6. (D) Native gel mobility shift analysis of wild-type and mutant repeat RNAs with increasing concentrations of PfCas6. The positions of the free (RNA) and protein-bound (RNP) RNAs are indicated. 5' and 3' cleavage products are indicated in both C and D. The sizes of RNA markers (M) are indicated in A and C.
Typically, identical reaction conditions were used to assay the ability of PfCas6 protein to bind to and to cleave substrate RNAs. These reactions were initiated by incubating 0.05 μmol of ^32P-radiolabeled RNAs (either uniformly or 5'-end-labeled) with up to 1 (as indicated in the figure legends) of PfCas6 protein in 20 mM HEPES-KOH (pH 7.0), 250 mM KCl, 0.75 mM DTT, 1.5 mM MgCl_2, 5 μg of E. coli tRNA, and 10% glycerol in a 20-μL reaction volume for 30 minutes at 70° C. […]

Data set [11] addresses T1, PfCas6 (PF1131). In words: EMSA; binding to the 5' cleavage product formed during incubation. Conditions: tags: N-terminal 6xHis; label: 32P 5' or uniform. The procedure: as §1, §2

B1: 3' cleavage product (repeat nt 23-30) (ssRNA)
RNA: AUUGAAAG
Regarding B1, the binding result in data set [1] is on record as “no binding”.

B2: repeat nt 1-12 (ssRNA)
RNA: GUUACAAUAAGA
Consider B2, for which the binding result in data set [2] was “binds”.

B3: CRISPR repeat RNA (ssRNA)
RNA: GUUACAAUAAGACCAAAAUAGAAUUGAAAG
Take B3: the binding result in data set [3] was “binds”. Also, the activity in data set [4] is ~2 fold reduction vs wild type; in data set [5], > 40 fold reduction vs wild type; in data set [6], > 150 fold reduction vs wild type.

B4: del. 1-8 (ssRNA)
RNA: GGGAAGACCAAAAUAGAAUUGAAAG
As to B4, in data set [7], the binding result was “no binding”.

B5: DNA repeat (ssDNA)
DNA: GTTACAATAAGACCAAAATAGAATTGAAAG
modifications: [none]
On to B5, for which the binding result in [8] is recorded as “no binding”.

B6: sub. 1-8 (ssRNA)
RNA: GGGCAAUGUUAAAGACCAAAAUAGAAUUGAAAG
On to B6, for which, in data set [7], the binding result was “no binding”.

B7: sub. 23-30 (ssRNA)
RNA: GGGUUACAAUAAGACCAAAAUAGAAAACUUUC
Regarding B7, the binding result in [9] (label: 32P uniform) is recorded as “binds”.

B8: del. 23-30 (ssRNA)
RNA: GGGUUACAAUAAGACCAAAAUAG
In the case of B8, in data set [9] (label: 32P uniform), the binding result is given as “binds”.

B9: AA to GG cleavage site mutant repeat (ssRNA)
RNA: GGGUUACAAUAAGACCAAAAUAGGGUUGAAAG
B9: the binding result in [10] is “binds”.

B10: guide + first part of repeat (panel c) (ssRNA)
RNA: GGGAUUGAAAGUUGUAGUAUGCGGUCCUUGCGGCUGAGAGCACUUCAGGUUACAAUAAGACCAAAAUAGA
B10: the binding result in data set [9] (label: 5' 32P) is “binds”.

B11: last 8 nt of repeat + guide (ssRNA)
RNA: AUUGAAAGUUGUAGUAUGCGGUCCUUGCGGCUGAGAGCACUUCAG
For B11, in data set [8], the binding result was “no binding”.

B12: repeat-guide-repeat (R-g-R) (ssRNA)
RNA: GGGUUCCAAUAAGACUACAAAAGAAUUGAAAGUUGUAGUAUGCGGUCCUUGCGGCUGAGAGCACUUCAGGUUCCAAUAAGACUACCAAAAGAAUUGAAAG
For B12, in data set [11], the binding result is reported as “binds”.
